B1: α' subunit: soy β-conglycinin α′ subunit purified by Metal Affinity Chromatography under denaturant conditions (protein, UniProt P11827 63-621, looked up)
Beta-conglycinin alpha' …: VEEEEECEEGQIPRPRPQHPERERQQHGEKEEDEGEQPRPFPFPRPRQPHQEEEHEQKEEHEWHRKEEKHGGKGSEEEQDEREHPRPHQPHQKEEEKHEWQHKQEKHQGKESEEEEEDQDEDEEQDKESQESEGSESQREPRRHKNKNPFHFNSKRFQTLFKNQYGHVRVLQRFNKRSQQLQNLRDYRILEFNSKPNTLLLPHHADADYLIVILNGTAILTLVNNDDRDSYNLQSGDALRVPAGTTYYVVNPDNDENLRMITLAIPVNKPGRFESFFLSSTQAQQSYLQGFSKNILEASYDTKFEEINKVLFGREEGQQQGEERLQESVIVEISKKQIRELSKHAKSSSRKTISSEDKPFNLRSRDPIYSNKLGKLFEITPEKNPQLRDLDVFLSVVDMNEGALFLPHFNSKAIVVLVINEGEANIELVGIKEQQQRQQQEEQPLEVRKYRAELSEQDIFVIPAGYPVVVNATSDLNFFAFGINAENNQRNFLAGSKDNVISQIPSQVQELAFPGSAKDIENLIKSQSESYFVDAQPQQKEEGNKGRKGPLSSILRAFY

Legend:
[1] = system: rats fed with hypercholesterolemic diet; experiment: Total cholesterol and triglycerids plasma levels in rats fed with hypercholesterolemic diet, 28 day oral treatment; assay type: in vivo, rat; details: for Total cholesterol / Total triglycerids: plasma, male CD rats, hypercholesterolemic diet, oral 28 days, after 16 hour fasting
Experimental: Male rats CD SPF/VAF, weighing 75-100 g, were used. The animals were housed in makrolon cages (4-5 animals per cage) in environment with automatic control of light (12 hour light/12 hour darkness cycles), temperature (21±1° C.) and humidity (60±5%).
After 7 day housing, the animals were randomly divided into seven groups of 20 rats each (Table 2). During 28 days, one group was fed with normal diet (cod. 014RF25C; Mucedola S.r.l., Settimo Milanese, MI, Italy), whereas the others were fed with hypercholesterolemic diet consisting of 1% cholesterol, 0.5% cholic acid and 25% hydrogenated coconut oil (batch 332000, preparation Jan. 9, 2000; Laboratorio Dottori Piccioni, Gessate, MI, Italy), with access to water ad libitum. The diet was given daily (40 g, 09.00 a.m.) and the unconsumed amount was weighed. Treatment was carried out as follows.
Total cholesterol and triglycerids plasma levels were measured at the end of the 28 day treatment and after 16 hour fasting. […] After centrifugation for 15 min at 4° C. at 3000 rpm, plasma was recovered, frozen and stored at −20° C. until measurements.
Total cholesterol and triglycerids plasma concentrations (reported in Table 2) were determined according to conventional enzymatic assays.

LDL receptor = details: hepatic cell line; Lovati et al. 1992, 1996; Manzoni et al. 1998; cited from earlier work

Molecule | Total cholesterol ([1]; dose 200 mg/kg) [mg/dL] | Total triglycerids ([1]; dose 200 mg/kg) [mg/dL] | effect on cholesterol and total triglycerids plasma levels (in words) ([1]; administration to rats, table 2) | Total cholesterol ([1]; dose 10 mg/kg) [mg/dL] | Total triglycerids ([1]; dose 10 mg/kg) [mg/dL] | LDL receptor activity (in words) (LDL receptor)
CCOC(=O)C(C)(C)Oc1ccc(Cl)cc1 [clofibrate, reference compound] | 191.2 ± 8.0 | 139.1 ± 5.8 |  |  |  | 
B1 |  |  | remarkably decreasing | 182.2 ± 12.1 | 150.1 ± 9.8 | capable of activating LDL receptor

From patent US8257758B2, “Process for the extraction, purification and enzymatic modification of soy 7S globulin alpha' subunit for use as hypocholesterolemizing agent” (Indena S.p.A., priority 2002, dated 2012)
